In the supplement of paper PMC10567573:

B1: KLHL13 (parent)
chain: GVSKVGLRKIIDFIYTAKLSLNMD

Variants of: B1
Assay: protein stability index of a GFP-peptide fusion (GPS, HEK-293T) (PSI 1-6); higher = more stable
Conditions: c terminus: a fixed tail appended
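Note: lentivirally expressed fusions sorted by FACS into six bins by GFP to DsRed ratio, PSI derived from sequencing read proportions per bin multiplied by bin number.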

First: GVSKVGLWKIIDFIYTAKLSLNMD [R8W]
Second: GVSKVGLHKIIDFIYTAKLSLNMD [R8H]
The protein stability index of the first is higher: 3.31 for the first, 2.07 for the second.

Compared with GVSKVGLKKIIDFIYTAKLSLNMD [R8K], GVSKVGLDKIIDFIYTAKLSLNMD [R8D] is lower in protein stability index: 4.72 for the first, 3.02 for the second.

Compared with GVSKVGLEKIIDFIYTAKLSLNMD [R8E], LVSKVGLRKIIDFIYTAKLSLNMD [G1L] is higher in protein stability index: 1.49 for the first, 2.96 for the second.

Going from SVSKVGLRKIIDFIYTAKLSLNMD [G1S] to WVSKVGLRKIIDFIYTAKLSLNMD [G1W], the protein stability index rises from 3.05 to 3.32.

Compared with HVSKVGLRKIIDFIYTAKLSLNMD [G1H], TVSKVGLRKIIDFIYTAKLSLNMD [G1T] is higher in protein stability index: 2.49 for the first, 3.89 for the second.

First: GKSKVGLRKIIDFIYTAKLSLNMD [V2K]
Second: GTSKVGLRKIIDFIYTAKLSLNMD [V2T]
The protein stability index of the first is lower: 2.38 for the first, 4.01 for the second.

First: GNSKVGLRKIIDFIYTAKLSLNMD [V2N]
Second: GDSKVGLRKIIDFIYTAKLSLNMD [V2D]
The protein stability index of the first is lower: 2.03 for the first, 3.51 for the second.

Going from GPSKVGLRKIIDFIYTAKLSLNMD [V2P] to GVSKVGLRKIIDFIYTAGLSLNMD [K18G], the protein stability index rises from 1.83 to 2.55.

Going from GVSKVGLRKIIDFIYTAPLSLNMD [K18P] to GVSKVGLRKIIDFIYTATLSLNMD [K18T], the protein stability index falls from 2.89 to 2.15.

First: GVSKVGLRKIIDFIYTARLSLNMD [K18R]
Second: GVSKVGLRKIIDFIYTASLSLNMD [K18S]
The protein stability index of the first is lower: 2.63 for the first, 3.44 for the second.

Going from GVSKVGLRKIIDFIYTANLSLNMD [K18N] to GVSKVGLRKIIDFIYTAQLSLNMD [K18Q], the protein stability index rises from 2.17 to 3.22.

Going from GVSKVGLRKIIDFIYPAKLSLNMD [T16P] to GVSKVGLRKIIDFIYGAKLSLNMD [T16G], the protein stability index rises from 2.57 to 2.86.

Compared with GVSKVGLRKIIDFIYWAKLSLNMD [T16W], GVSKVGLRKTIDFIYTAKLSLNMD [I10T] is higher in protein stability index: 1.79 for the first, 2.02 for the second.

Going from GVSKVGLRKAIDFIYTAKLSLNMD [I10A] to GVSKVGLRKCIDFIYTAKLSLNMD [I10C], the protein stability index falls from 2.04 to 1.53.

Going from GVSKVGLRKDIDFIYTAKLSLNMD [I10D] to GVSKVGLRKIIDPIYTAKLSLNMD [F13P], the protein stability index rises from 1.55 to 2.22.

Compared with GVSKVGLRKIIDEIYTAKLSLNMD [F13E], GVSKVGLRKIIDMIYTAKLSLNMD [F13M] is higher in protein stability index: 1.43 for the first, 2.74 for the second.

Going from GVSKVGLRKIIDHIYTAKLSLNMD [F13H] to GVSKVGLRKIIDRIYTAKLSLNMD [F13R], the protein stability index falls from 2.62 to 1.54.

Compared with GVSKVGLRKIIDFIYTAKLSLWMD [N22W], GVSKVGLRKIIDFIYTAKLSLYMD [N22Y] is higher in protein stability index: 1.31 for the first, 1.99 for the second.

Going from GVSKVGLRKIIDFIYTAKLSLLMD [N22L] to GVSKVGLRKIIDFIYTAKLSLNKD [M23K], the protein stability index falls from 2.11 to 1.

First: GVSKVGLRKIIDFIYTAKLSLNQD [M23Q]
Second: GVSKVGLRKIIDFIYTAKLSLNRD [M23R]
The protein stability index of the first is lower: 1.55 for the first, 3.14 for the second.

Compared with GVSKVGLRKIIDFIYTAKLSLNHD [M23H], GVSKVGLRKIIDFIYTAKLSLNGD [M23G] is higher in protein stability index: 3.04 for the first, 3.36 for the second.

Compared with GVSKVGLRKIITFIYTAKLSLNMD [D12T], GVSKVGLRKIIHFIYTAKLSLNMD [D12H] is lower in protein stability index: 2.9 for the first, 1.92 for the second.

Compared with GVSKVGLRKIIVFIYTAKLSLNMD [D12V], GVSKVGLRKIIDFQYTAKLSLNMD [I14Q] is higher in protein stability index: 1.94 for the first, 2.24 for the second.

Going from GVSKVGLRKIIDFNYTAKLSLNMD [I14N] to GVSKVGLRKIIDFMYTAKLSLNMD [I14M], the protein stability index rises from 2.15 to 3.04.

Compared with GVSKVGFRKIIDFIYTAKLSLNMD [L7F], GVSKVGSRKIIDFIYTAKLSLNMD [L7S] is higher in protein stability index: 2.93 for the first, 2.94 for the second.

Compared with GVSKVGQRKIIDFIYTAKLSLNMD [L7Q], GVSKVGKRKIIDFIYTAKLSLNMD [L7K] is lower in protein stability index: 2.97 for the first, 1.86 for the second.

Going from GVSKVGHRKIIDFIYTAKLSLNMD [L7H] to GVSKVGLRKIIDFIYTRKLSLNMD [A17R], the protein stability index falls from 3.17 to 2.95.

Compared with GVSKVGLRKIIDFIYTSKLSLNMD [A17S], GVGKVGLRKIIDFIYTAKLSLNMD [S3G] is lower in protein stability index: 1.75 for the first, 1.62 for the second.

Going from GVYKVGLRKIIDFIYTAKLSLNMD [S3Y] to GVDKVGLRKIIDFIYTAKLSLNMD [S3D], the protein stability index falls from 3.66 to 2.68.

Compared with GVWKVGLRKIIDFIYTAKLSLNMD [S3W], GVSKVGLRHIIDFIYTAKLSLNMD [K9H] is higher in protein stability index: 2.47 for the first, 2.64 for the second.

First: GVSKVGLRMIIDFIYTAKLSLNMD [K9M]
Second: GVSKVGLRIIIDFIYTAKLSLNMD [K9I]
The protein stability index of the first is lower: 2.42 for the first, 3.12 for the second.

First: GVSKVGLRLIIDFIYTAKLSLNMD [K9L]
Second: GVSKVGLRDIIDFIYTAKLSLNMD [K9D]
The protein stability index of the first is lower: 2.37 for the first, 3.8 for the second.

First: GVSKVGLRQIIDFIYTAKLSLNMD [K9Q]
Second: GVSKVGLRKIIDFIYTAKLSLNMP [D24P]
The protein stability index of the first is lower: 2.03 for the first, 2.88 for the second.

Compared with GVSKVGLRKIIDFIYTAKLSLNMG [D24G], GVSKVGLRKIIDFIYTAKLSLNMA [D24A] is lower in protein stability index: 3.65 for the first, 3.2 for the second.

Compared with GVSKVGLRKIIDFIYTAKLSANMD [L21A], GVSKVGLRKIIDFIYTAKLSDNMD [L21D] is lower in protein stability index: 1.94 for the first, 1.8 for the second.

First: GVSKVGLRKIIDFIYTAKLSPNMD [L21P]
Second: GVSKGGLRKIIDFIYTAKLSLNMD [V5G]
The protein stability index of the first is lower: 1.86 for the first, 3.21 for the second.

Going from GVSKMGLRKIIDFIYTAKLSLNMD [V5M] to GVSKQGLRKIIDFIYTAKLSLNMD [V5Q], the protein stability index rises from 2.27 to 3.5.

Compared with GVSKFGLRKIIDFIYTAKLSLNMD [V5F], GVSKYGLRKIIDFIYTAKLSLNMD [V5Y] is lower in protein stability index: 4.57 for the first, 2.06 for the second.

Going from GVSKTGLRKIIDFIYTAKLSLNMD [V5T] to GVSKWGLRKIIDFIYTAKLSLNMD [V5W], the protein stability index falls from 4.05 to 3.14.

Going from GVSKCGLRKIIDFIYTAKLSLNMD [V5C] to GVSKVGLRKIQDFIYTAKLSLNMD [I11Q], the protein stability index falls from 2.67 to 1.61.

First: GVSKVGLRKILDFIYTAKLSLNMD [I11L]
Second: GVSKVGLRKIHDFIYTAKLSLNMD [I11H]
The protein stability index of the first is lower: 3.57 for the first, 4.7 for the second.

First: GVSKVGLRKIYDFIYTAKLSLNMD [I11Y]
Second: GVSKVGLRKIMDFIYTAKLSLNMD [I11M]
The protein stability index of the first is higher: 4.12 for the first, 3.33 for the second.

First: GVSKVGLRKIIDFIYTAKLALNMD [S20A]
Second: GVSKVGLRKIIDFIYTAKLWLNMD [S20W]
The protein stability index of the first is higher: 3.46 for the first, 1.85 for the second.

First: GVSKVGLRKIIDFIYTAKLKLNMD [S20K]
Second: GVSKVGLRKIIDFIYTAKLILNMD [S20I]
The protein stability index of the first is higher: 3.46 for the first, 2.04 for the second.

First: GVSKVGLRKIIDFIYTAKLPLNMD [S20P]
Second: GVSKVGLRKIIDFIYTAKLELNMD [S20E]
The protein stability index of the first is lower: 2.25 for the first, 4.11 for the second.

First: GVSKVGLRKIIDFIYTAKTSLNMD [L19T]
Second: GVSKVGLRKIIDFIYTAKHSLNMD [L19H]
The protein stability index of the first is higher: 2.95 for the first, 1.87 for the second.

Going from GVSKVGLRKIIDFIYTAKQSLNMD [L19Q] to GVSKVGLRKIIDFIYTAKDSLNMD [L19D], the protein stability index falls from 2.21 to 1.36.
